According to publication PMC4619145 (Virology, 2015):

Legend:
[1] = target: T1, DENV-3 envelope glycoprotein E domain III (DIII), wild type, displayed on M13 phage (Dengue virus 3, Thailand/PaH881/1988); assay: ELISA
T1 chain: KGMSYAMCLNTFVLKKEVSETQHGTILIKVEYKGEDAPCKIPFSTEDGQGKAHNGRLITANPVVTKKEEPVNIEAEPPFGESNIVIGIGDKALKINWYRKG

[2] = target: T2, DENV-2 envelope glycoprotein E domain III (DIII), wild type, displayed on M13 phage (Dengue virus 2, Jamaica/1409/1983); assay: ELISA
T2 chain: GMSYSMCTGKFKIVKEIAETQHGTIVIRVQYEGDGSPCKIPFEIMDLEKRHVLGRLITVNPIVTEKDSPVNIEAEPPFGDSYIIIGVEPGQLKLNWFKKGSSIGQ

B1: monoclonal antibody 4E11 (IgG) (antibody, V domains shown)
VH: VKLLEQSGAELVKPGASVRLSCTASGFNIKDTYMSWVKQRPEQGLEWIGRIDPANGDTKYDPKFQGKATITADTSSNTAYLHLSSLTSGDTAVYYCSRGWEGFAYWGQGTLVTVSA
VL: ELVMTQTPASLAVSLGQRATISCRASENVDRYGNSFMHWYQQKAGQPPKLLIYRASNLESGIPARFSGSGSRTDFTLTINPVEADDVATYFCQRSNEVPWTFGGGTKLEIK
B1: binds [1]; binds [2].
